This note sets out measurements from US20210371518A1 (University of Texas, published 2021).

The target in assay [1] is T1, human LILRB4 extracellular domain (ECD) recombinant protein (human, UniProt Q8NHJ6 22-259).
T1 construct: extracellular domain; also called LILRB4 ECD; LILRB4-ECD
Put plainly: ELISA, LILRB4 recombinant protein coated, anti-human IgG F(ab)2-HRP.

In assay [2] the target is T1, human LILRB4 extracellular domain (ECD) …. Put plainly: ELISA, coated LILRB4 ECD. As for the experimental part: FIG. 22 illustrates the determination of exemplary LILRB4 monoclonal antibody (mAbs) binding to human LILRB4 ECD using a concentration titration (0-10 μg/ml) by ELISA. X axis indicates the antibody concentrations and Y-axis is binding signals in OD (450 nm). LILRB4 ECD recombinant protein was coated on high absorption 96-well plates. Serial diluted (3-fold) LILRB4 mAb was added to the coated/blocked and detected using goat anti-rabbit IgG F(ab)₂-conjugated HRP as secondary antibody. The titration curves were fitted using 4-parameter fitting curve using the GraphPad software for EC50 estimation.

Assay [3] has the same target. Put plainly: Octet BLI, antibody on protein A sensor, recombinant human LILRB4 in solution. As for the experimental part:
FIG. 26 illustrates the kinetic binding measurements (sensor-grams) for exemplary LILRB4 antibodies determined using Octet. Antibody at 30 μg/mL was loaded to the proteins A sensor for 4 min. Following a short baseline in kinetics buffer, the loaded sensors were exposed to a series of recombinant human LILRB4 concentrations (0.1-200 nM) and background subtraction was used to correct for sensor drifting. All experiments were performed with shaking at 1,000 rpm. Background wavelength shifts were measured from reference sensors that were loaded only with antibody. ForteBio's data analysis software was used to fit the data to a 1:1 binding model to extract an association rate and dissociation rate. The KD was calculated by the ratio koff/kon using ForteBio's data analysis software 7.0.
(In general: BLI is a label-free optical method that tracks binding on a fibre tip over time.)

In assay [4] the target is T2, human LILRB4 D1 recombinant protein (human, UniProt Q8NHJ6 24-119, limits assumed).
T2 construct: domain: D1 domain; also called LILRB4 D1 domain (D1); Ig domain-1
Briefly: ELISA, LILRB4 D1 recombinant protein coated, anti-rabbit IgG F(ab)2-HRP. As for the experimental part:
FIGS. 23A-23B. FIG. 23A is a schematic of the LILRB4 extracellular domain (ECD). […] FIG. 23B illustrates the determination of exemplary LILRB4 mAbs binding to Ig domain-1 (D1 domain) of human LILRB4. X axis indicates the antibody concentrations and Y-axis is binding signals in OD (450 nm). LILRB4 D1 recombinant protein was coated on high absorption 96-well plates. Serial diluted (3-fold) LILRB4 mAb was added to the coated/blocked plates and detected using goat anti-rabbit IgG F(ab)₂-conjugated HRP as secondary antibody.

T2 sequence (Q8NHJ6 24-119 limits assumed): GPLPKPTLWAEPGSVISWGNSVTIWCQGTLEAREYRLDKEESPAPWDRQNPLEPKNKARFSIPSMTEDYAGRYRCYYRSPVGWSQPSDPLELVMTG

B1: h193 (antibody, V domains shown)
VH: EVQLVESGGGLVQPGGSLRLSCAASGFSLSSSYWISWVRQAPGKGLEWIGSIDSGSVGITYYATWVKGRFTISRDNSKNTLYLQMNSLRAEDTAVYYCARHGDNWALDLWGQGTLVTVSS
VL: DLVMTQSPSTLSASVGDRVTITCQASQSINSWLAWYQQKPGKPPKLLIYKASTLASGVSSRFSGSGSGTEFTLTISSLQPDDVATYYCQHGYIRGDLDNVFGGGTKVEIKR
With B1, in assay [1], the “EC50 (read off the curve)” value was ~30 ng/mL.

B2: B4-87 (antibody, V domains shown)
VH: QSVKESGGDLVKPGASLTLTCTASGFSFISTYWICWVRQAPGKGLELIACIYTGGSGSTYYASWAKGRFTISKTSSTTVTLQLNSLTAADTATYFCARALYVDYVDYDYIDLWGPGTLVTVSS
VL: ELDLTQTPASVEAAVGGTVTIKCQASENIGSRLAWYQQKPGQPPKLLIYAASNLASGVSSRFKGSRSGTQFTLTISDLECADAAIYYCQCSYYGSTYVFGFGGGTEVEIK
notes: Rabbit monoclonal antibody
Turning to B2, the EC50 in assay [2] was determined as 2.54 nM. In addition, the Kd in assay [3] came out at 0.238 nM. In assay [4], the “EC50 (read off the curve)” value is ~200 ng/mL.

The term EC50 (read off the curve) denotes the midpoint of the concentration-response curve. As usually defined, the EC50 is the concentration that produces a half-maximal response. The term Kd denotes a measure of binding affinity in units of concentration.
